Test results from patent publication US20210122824A1 (ADAGENE, published 2021).

T1: human LAG3 expressed on HEK293F cells (human, UniProt P18627 23-525)
T1 construct: whole, on cells
T1 sequence (looked up): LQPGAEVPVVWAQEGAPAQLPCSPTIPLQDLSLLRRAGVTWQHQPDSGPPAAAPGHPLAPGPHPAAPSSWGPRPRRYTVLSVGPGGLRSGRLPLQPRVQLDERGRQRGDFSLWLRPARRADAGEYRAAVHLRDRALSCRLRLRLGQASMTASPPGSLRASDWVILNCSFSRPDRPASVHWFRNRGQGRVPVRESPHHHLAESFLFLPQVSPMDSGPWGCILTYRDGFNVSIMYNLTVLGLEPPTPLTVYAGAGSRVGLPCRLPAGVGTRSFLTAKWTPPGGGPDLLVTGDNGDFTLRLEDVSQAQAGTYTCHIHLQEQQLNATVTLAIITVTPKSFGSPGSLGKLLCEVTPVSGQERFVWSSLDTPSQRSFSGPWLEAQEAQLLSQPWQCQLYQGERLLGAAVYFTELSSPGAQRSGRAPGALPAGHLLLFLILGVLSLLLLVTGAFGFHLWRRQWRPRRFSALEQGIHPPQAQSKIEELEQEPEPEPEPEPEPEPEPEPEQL

T2: human B7-H3 expressed on HEK293F cells (human, UniProt Q5ZPR3 29-534)
T2 construct: whole, on cells
T2 sequence (looked up): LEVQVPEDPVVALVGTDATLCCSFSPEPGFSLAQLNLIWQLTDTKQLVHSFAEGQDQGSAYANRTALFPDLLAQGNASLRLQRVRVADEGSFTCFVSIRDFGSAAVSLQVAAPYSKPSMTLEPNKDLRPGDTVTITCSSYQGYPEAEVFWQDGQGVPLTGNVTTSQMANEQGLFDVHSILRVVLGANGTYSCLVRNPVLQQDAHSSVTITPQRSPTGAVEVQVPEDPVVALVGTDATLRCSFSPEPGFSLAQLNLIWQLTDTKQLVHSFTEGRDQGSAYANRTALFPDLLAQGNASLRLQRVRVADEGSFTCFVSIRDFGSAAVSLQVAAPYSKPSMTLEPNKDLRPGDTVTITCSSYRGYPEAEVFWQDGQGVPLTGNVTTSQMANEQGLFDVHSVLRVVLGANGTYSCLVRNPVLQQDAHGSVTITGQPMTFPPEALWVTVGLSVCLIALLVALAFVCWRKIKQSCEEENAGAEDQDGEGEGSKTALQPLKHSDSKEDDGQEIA


How the values were obtained:
[1] = molecular target: T3, human PD-L1 expressed on cell surface (human, UniProt Q9NZQ7 19-290); assay: flow cytometry, HEK293F cells transiently expressing the target, 100 nM antibody, PE anti-human Fc; Mean (PE-A against FITC-A, GFP surrogate)
T3 construct: whole, on cells; also called full-length human PD-L1; cell surface PD-L1

[2] = molecular target: T4, human PD1 expressed on HEK293F cells (human, UniProt Q15116 25-288); assay: as above
T4 construct: whole, on cells

[3] = molecular target: T5, mouse PD-L1 expressed on HEK293F cells (mouse, UniProt Q9EP73 19-290); assay: as above
T5 construct: whole, on cells

[4] = molecular target: T3, human PD-L1 expressed on cell surface; assay: blocking by flow cytometry, HEK293F cells expressing full-length human PD-L1, 100 nM antibody then 100 nM biotinylated PD1-His (blocked ligand), Alexa fluor 633 streptavidin; isotype control panel Q2 35.1%
[5] = molecular target: T6, human PD-L1-His6 (Sino Biological #10084-H08H) (human, UniProt Q9NZQ7 19-239); assay: SPR (Biacore T200), antibody captured by anti-human Fc, PD-L1-His6 in solution
T6 construct: bought; not shown: His6 tag

[6] = molecular target: T7, rhesus PD-L1 expressed on HEK293F cells (rhesus, UniProt F6VEW6 19-290); assay: flow cytometry on transfected HEK293F cells, 100 nM antibody
T7 construct: whole, on cells

[7] = molecular target: mouse PD-L1 (construct not stated) (mouse, UniProt Q9EP73 19-238, limits assumed); assay: SPR (Biacore)
[8] = molecular target: T8, human TIM3 expressed on HEK293F cells (human, UniProt Q8TDQ0 22-301); assay: flow cytometry on transfected HEK293F cells
T8 construct: whole, on cells

[9] = molecular target: T1, human LAG3 expressed on HEK293F cells; assay: flow cytometry on transfected HEK293F cells
[10] = molecular target: T9, human CTLA4 expressed on HEK293F cells (human, UniProt P16410 36-223); assay: flow cytometry on transfected HEK293F cells
T9 construct: whole, on cells

[11] = molecular target: T4, human PD1 expressed on HEK293F cells; assay: flow cytometry on transfected HEK293F cells
[12] = molecular target: T2, human B7-H3 expressed on HEK293F cells; assay: flow cytometry on transfected HEK293F cells
[13] = molecular target: T8, human TIM3 expressed on HEK293F cells; assay: flow cytometry, HEK293F cells transiently expressing the target, 100 nM antibody, PE anti-human Fc; Mean (PE-A against FITC-A, GFP surrogate)
[14] = molecular target: T1, human LAG3 expressed on HEK293F cells; assay: as above
[15] = molecular target: T9, human CTLA4 expressed on HEK293F cells; assay: as above
[16] = molecular target: T10, human PD-L1-Fc fusion protein (Sino Biological Cat #10084-H02H) (human, UniProt Q9NZQ7 19-239); assay: competition ELISA, PD1-Fc (1 ug/mL) coated, biotinylated PD-L1-Fc mixed with antibody, HRP neutravidin; blocked ligand PD1-Fc
T10 construct: bought; not shown: Fc part of the bought fusion

[17] = molecular target: T7, rhesus PD-L1 expressed on HEK293F cells; assay: flow cytometry, HEK293F cells transiently expressing the target, 100 nM antibody, PE anti-human Fc; Mean (PE-A against FITC-A, GFP surrogate)
[18] = molecular target: T2, human B7-H3 expressed on HEK293F cells; assay: as above

T10 sequence (Q9NZQ7 19-239 limits assumed): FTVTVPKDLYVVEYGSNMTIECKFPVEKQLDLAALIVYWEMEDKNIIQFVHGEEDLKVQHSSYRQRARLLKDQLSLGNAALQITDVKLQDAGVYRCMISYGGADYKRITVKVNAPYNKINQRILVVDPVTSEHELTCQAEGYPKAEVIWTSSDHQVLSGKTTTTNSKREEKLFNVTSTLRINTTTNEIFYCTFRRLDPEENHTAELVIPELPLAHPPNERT
T6 sequence (Q9NZQ7 19-239 limits assumed): as above
T3 sequence (Q9NZQ7 19-290): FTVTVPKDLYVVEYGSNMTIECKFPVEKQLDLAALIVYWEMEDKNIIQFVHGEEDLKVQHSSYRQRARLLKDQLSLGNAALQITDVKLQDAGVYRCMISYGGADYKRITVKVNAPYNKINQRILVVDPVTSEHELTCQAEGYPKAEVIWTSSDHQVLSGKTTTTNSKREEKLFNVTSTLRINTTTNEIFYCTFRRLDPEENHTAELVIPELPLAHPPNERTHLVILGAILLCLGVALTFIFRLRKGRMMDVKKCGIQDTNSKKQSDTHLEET
T9 sequence (P16410 36-223): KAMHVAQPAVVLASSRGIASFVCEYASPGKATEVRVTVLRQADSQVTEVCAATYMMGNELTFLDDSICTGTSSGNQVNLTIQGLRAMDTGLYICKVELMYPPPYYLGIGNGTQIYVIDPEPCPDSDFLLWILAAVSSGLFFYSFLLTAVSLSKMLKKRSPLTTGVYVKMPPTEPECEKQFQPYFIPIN
T4 sequence (Q15116 25-288): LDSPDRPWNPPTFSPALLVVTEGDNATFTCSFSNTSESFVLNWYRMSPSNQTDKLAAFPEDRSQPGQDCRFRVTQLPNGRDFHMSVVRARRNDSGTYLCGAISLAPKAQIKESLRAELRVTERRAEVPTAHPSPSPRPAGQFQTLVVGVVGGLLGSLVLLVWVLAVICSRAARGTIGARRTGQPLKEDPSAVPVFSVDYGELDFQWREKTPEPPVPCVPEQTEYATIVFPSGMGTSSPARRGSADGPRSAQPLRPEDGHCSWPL
T5 sequence (Q9EP73 19-290): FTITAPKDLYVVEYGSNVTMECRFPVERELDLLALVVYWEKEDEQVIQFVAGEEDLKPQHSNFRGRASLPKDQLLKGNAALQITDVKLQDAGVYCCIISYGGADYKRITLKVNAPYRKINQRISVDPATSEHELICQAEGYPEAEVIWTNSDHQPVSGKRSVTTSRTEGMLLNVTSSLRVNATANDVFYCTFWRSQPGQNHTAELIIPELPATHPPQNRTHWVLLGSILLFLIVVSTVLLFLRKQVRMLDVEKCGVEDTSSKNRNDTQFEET
Sequence of mouse PD-L1 (construct not stated) (Q9EP73 19-238 limits assumed): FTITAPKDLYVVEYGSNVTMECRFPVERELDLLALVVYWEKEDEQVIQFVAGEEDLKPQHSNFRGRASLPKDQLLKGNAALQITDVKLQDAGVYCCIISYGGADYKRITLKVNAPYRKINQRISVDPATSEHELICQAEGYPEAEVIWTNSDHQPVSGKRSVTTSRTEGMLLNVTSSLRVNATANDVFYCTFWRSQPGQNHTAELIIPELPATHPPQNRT

| Mean [1] | Mean [2] | Mean [3] | Q2 (percent of cells positive for GFP and for the APC signal of PD1-His, antibody present) [4] [%] | Kd [5] [nM] | koff [5] [s⁻¹] | kon [5] [M⁻¹ s⁻¹] | binding result [6] | binding result [7] | binding result [8] | binding result [9] | binding result [10] | binding result [11] | binding result [12] | Mean [13] | Mean [14] | Mean [15] | IC50 (read off the curve) [16] [nM] | Mean [17] | Mean [18] | Binder |
| --- | --- | --- | --- | --- | --- | --- | --- | --- | --- | --- | --- | --- | --- | --- | --- | --- | --- | --- | --- | --- |
| 227000 | 2570 | 2470 | 0.29 | 0.399 | 0.000179 | 448000 | binds | no binding | no binding (tested: 100 nM) | no binding (tested: 100 nM) | no binding (tested: 100 nM) | no binding (tested: 100 nM) | no binding (tested: 100 nM) | 2480 | 2830 | 3460 | ~6 | – | – | TY21418 (antibody, V domains shown, IgG1 (wild type) made from Fab B13002, from HEK293F cells) VH: EVQLVESGGGLVQPGGSLRLSCAASGYTFSNYGIHWVRQAPGKGLEWIGWIYPSGGGTKYAQKFQGRVTISRDNSKNTLYLQLNSLRAEDTAVYYCAREGGGYGYALDYWGQGTLVTVSS VL: DIQLTQSPSSLSASVGDRVTITCRASQGVSSYLAWYQQKPGKAPKLLIYDASNLETGVPSRFSGSGSGTDFTLTISSLQPEDFATYYCQQYDAWPYTFGQGTKVEIKR |
| 219000 | 3110 | 2500 | 0.58 | 0.465 | 0.000143 | 307000 | – | no binding | no binding (tested: 100 nM) | no binding (tested: 100 nM) | no binding (tested: 100 nM) | no binding (tested: 100 nM) | no binding (tested: 100 nM) | 2310 | 3390 | 2330 | ~6 | 201000 | 2380 | TY21419 (antibody, V domains shown, IgG1 (wild type) made from Fab B13004, from HEK293F cells) VH: EVQLVESGGGLVQPGGSLRLSCAASGYTFSNYGIHWVRQAPGKGLEWIGWIYPSGGGTKYAQKFQGRVTISRDNSKNTLYLQLNSLRAEDTAVYYCAREGGGYGYALDYWGQGTLVTVSS VL: DIQLTQSPSSLSASVGDRVTITCRASQGISPWLAWYQQKPGKAPKLLIYDASNRATGIPSRFSGSGSGTDFTLTISSLQPEDFATYYCQQYDSWPYTFGQGTKVEIKR |
| – | 3710 | – | 1.53 | – | – | – | – | – | no binding (tested: 100 nM) | no binding (tested: 100 nM) | no binding (tested: 100 nM) | no binding (tested: 100 nM) | no binding (tested: 100 nM) | 4660 | 4630 | 4570 | ~6 | 164000 | 3780 | TY21420 (antibody, V domains shown, IgG1 (wild type) made from Fab B15016, from HEK293F cells) VH: EVQLVESGGGLVQPGGSLRLSCAASGYSISSGYYWGWIRQAPGKGLEWIGIIYPSGGGTNYAQKFQGRVTISRDNSKNTLYLQLNSLRAEDTAVYYCARGGGLGFDYWGQGTLVTVSS VL: DIQLTQSPSSLSASVGDRVTITCRASQTIPSFLNWYQQKPGKAPKLLIYAASSLQSGVPSRFSGSGSGTDFTLTISSLQPEDFATYYCQHYTSWPRQFTFGQGTKVEIKR |
